Source: patent publication US12571058

Molecular target: histidine kinase UzcS (Caulobacter crescentus NA1000)
Assay: cell-based or functional assay

Chain of histidine kinase UzcS (Caulobacter crescentus NA1000) (chain, as listed by the source limits assumed, form in doubt): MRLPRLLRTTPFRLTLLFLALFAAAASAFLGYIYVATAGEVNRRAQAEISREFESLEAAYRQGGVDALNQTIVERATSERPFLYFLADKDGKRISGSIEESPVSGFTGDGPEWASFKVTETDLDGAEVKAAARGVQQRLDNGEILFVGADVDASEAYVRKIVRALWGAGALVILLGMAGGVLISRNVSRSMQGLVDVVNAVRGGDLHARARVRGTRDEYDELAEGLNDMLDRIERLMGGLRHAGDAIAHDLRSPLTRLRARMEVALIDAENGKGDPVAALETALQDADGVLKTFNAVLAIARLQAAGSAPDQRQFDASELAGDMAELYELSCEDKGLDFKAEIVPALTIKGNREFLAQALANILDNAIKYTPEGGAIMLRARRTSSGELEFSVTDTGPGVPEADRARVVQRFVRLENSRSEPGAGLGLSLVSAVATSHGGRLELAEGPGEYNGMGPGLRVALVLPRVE

## UzcY
  fold decrease in U detection limit of UzcRS (reporter fluorescence with and without UzcY, FIG. 12): > 4 fold
